Experimental data taken from patent US8840891 (RSR, dated 2014).

Key:
[1] = target: TSHR with Asp232 mutated to Alanine expressed on CHO cells (human) (UniProt P16473); assay: cell-based or functional assay
[2] = target: wild type human TSHR (thyrotropin receptor) expressed on CHO cells (human) (UniProt P16473); assay: cell-based or functional assay

B1: 5C9 IgG (human monoclonal autoantibody to the TSHR) (antibody, from another filing, V domains shown)
VH: EVQLVESGGGLIQPGGSLRLSCAASGFTVSSNYMSWVRQAPGKGLEWVSVTYSGGSTSYADSVKGRFTISRDNSKNTLYLQMNSLRAEDTAVYYCARGGRYCSSISCYARSGCDYWGQGTLVTVSS
VL: AIQMTQSPSSLSASVGDRVTITCRASQSISNYLNWYQQKPGKAPKLLIYAASSLQSGVPSRFSGSGSGTDFTLTISSLQPEDFATYYCQQSYSSPSTTFGQGTKLEIK
Cyclic AMP produced; 5C9 0.01 µg/mL + TSH (fmol/cell well) [1]: 15300
Cyclic AMP produced; 5C9 0.1 µg/mL + TSH (fmol/cell well) [1]: 6560
Cyclic AMP produced; 5C9 1.0 µg/mL + TSH (fmol/cell well) [1]: 1880
Cyclic AMP produced; 5C9 10 µg/mL + TSH (fmol/cell well) [1]: 710
Cyclic AMP produced; 5C9 100 µg/mL + TSH (fmol/cell well) [1]: 55
Cyclic AMP produced; 5C9 100 µg/mL only (fmol/cell well) [1]: 99
Mutated/wild type (%); 5C9 0.01 µg/mL + TSH [1]: 87%
Mutated/wild type (%); 5C9 0.1 µg/mL + TSH [1]: 89%
Mutated/wild type (%); 5C9 1.0 µg/mL + TSH [1]: 176%
Mutated/wild type (%); 5C9 10 µg/mL + TSH [1]: 89%
Mutated/wild type (%); 5C9 100 µg/mL + TSH [1]: 33%
Mutated/wild type (%); 5C9 100 µg/mL only [1]: 19%
Cyclic AMP produced; 5C9 0.01 µg/mL + TSH (fmol/cell well) [2]: 17600
Cyclic AMP produced; 5C9 0.1 µg/mL + TSH (fmol/cell well) [2]: 7330
Cyclic AMP produced; 5C9 1.0 µg/mL + TSH (fmol/cell well) [2]: 1070
Cyclic AMP produced; 5C9 10 µg/mL + TSH (fmol/cell well) [2]: 794
Cyclic AMP produced; 5C9 100 µg/mL + TSH (fmol/cell well) [2]: 166
Cyclic AMP produced; 5C9 100 µg/mL only (fmol/cell well) [2]: 522
